These are literature values, as cited in publication PMC3012698, “Characterization of a Novel Interaction between Bcl-2 Members Diva and Harakiri” (PLoS ONE, 2010).

The conditions of the data set: ref [10]. How it is done:
Circular dichroism (CD) experiments were performed on Harakiri's cytosolic domain to obtain information on its conformational behavior. […] Thus, the cytosolic domain of Harakiri is largely unstructured. Consequently, the NMR spectra of Hrk_ΔTM show small amide ^1H chemical shift dispersion (from ∼7.9 to 8.7 ppm) and severe signal overlap ( Fig. 6 ). These spectral features together with the absen ...

As for Bim: BH3-only protein Bim, the “folding upon binding to Bcl-2 members” value is reported as “undergoes partial folding upon binding to Bcl-2 members” and the “structural state of unbound BH3-only protein” value was “unstructured”.
For Bmf: BH3-only protein Bmf, the “structural state of unbound BH3-only protein” value was “unstructured”.
